# Results from US20240376556, “BIOSENSORS FOR DETECTING AND/OR NEUTRALIZING BIOAVAILABLE URANIUM AND RELATED U-SENSITIVE GENETIC MOLECULAR COMPONENTS, GENE CASSETTES, VECTORS, GENETIC CIRCUITS, COMPOSITIONS, METHODS AND SYSTEMS” (LAWRENCE LIVERMORE NATIONAL SECURITY, LLC, published 2024).
# T1: UrpR (CCNA_01362), native in cells (Caulobacter crescentus NA1000)
# T1 chain: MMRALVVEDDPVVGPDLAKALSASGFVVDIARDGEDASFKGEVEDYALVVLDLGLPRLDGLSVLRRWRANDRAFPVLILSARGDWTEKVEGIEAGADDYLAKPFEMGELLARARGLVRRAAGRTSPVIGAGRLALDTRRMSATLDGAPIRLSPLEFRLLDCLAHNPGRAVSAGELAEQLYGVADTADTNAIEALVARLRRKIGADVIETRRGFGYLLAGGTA
# B1: P1361 promoter (dsDNA)
# DNA 1: GAACGATAGCGCCGCCTGCGAGCGCGACCTCAGGCCTCGGACGAAGCGCGTCCGGGGCCTTTTCTTGTCGATGTTCAGCGCCTGGTTACCGGCGATGGCGCGGTGTCAGCGTTCGGGCGTTGCGATGCGTCAGGAGCGTGTCAGGATGCCTGTGGAATCCTAAGCGCCATCACCCAGTCCCGATCTTTCC
# DNA 2: GGAAAGATCGGGACTGGGTGATGGCGCTTAGGATTCCACAGGCATCCTGACACGCTCCTGACGCATCGCAACGCCCGAACGCTGACACCGCGCCATCGCCGGTAACCAGGCGCTGAACATCGACAAGAAAAGGCCCCGGACGCGCTTCGTCCGAGGCCTGAGGTCGCGCTCGCAGGCGGCGCTATCGTTC
# Biological target: T1, UrpR (CCNA_01362), native in cells
# Experiment: cell_activity; P1361-gfp induction in wild type with 20 uM U; U induction abolished by CCNA_01362 deletion
binder,measurement,value
B1,activity,10.5 fold
